# Assay: soluble on expression in E. coli; label from the status in PepcDB or PDB records
row,Sequence,soluble on expression in E. coli
1,MGSDKIHHHHHHMKAKHTDLEKLEQLYKESGNQLVVLYGRRGCQKEELIKEFCDGKKFFYYRCRQASPEHQLEMMGEEISRQYKVSLSRQTYEEYFARIKSGDPSKLVVIIDEAQFVAKRDTSFMEAVAKLKKHKLYPGPVLIILATSSTVWATQEASEQFKGAEMKLESLNFLEVVRHFESLPVAEIVRIYGAIGGVPAYLDKWDAAKSFKENICRLVLTPSGALYGEADAVISSELRELSAYSTILAAIARGENKLNDIFHATGFSRAKISVYLKNLATFNIVEKVVSFETGGWENAKKGVYQIKDTFVNFWFKFVYPNMSNLYLLSPEEFYDTYIEKELDAYLERYFREVCTEYLLILNQMGQLPFTIKRVGTWIGKTGRIDIVAQSEDRRSIIGFCNWDKPMMTMDMCENMAMAMDQARLTSDDYYLFSATDFEPALQSYVVRDPRFKLINMNEL,not soluble
2,MGSDKIHHHHHHMKAQSALSVKEANFKAMTTFIYTQGSATKQMFEHELGLSLPTITQNLRAMEADGLIVKGEMQKSTGGRKAQIYEFAAHSSVAIGVRIQTTRITAIAIDLNGKSVATRQRTLPYRNNDAYYQRMNDIINGFAQELAKQGSTVLGVAFCMQGIVSADGQSITFGKIMNNTGLKLSELSHGLNYPSLMIHDSDASAMAELWFDHNLKDAVCIYLERRPGGAVIVDGSLYQGPNQCNGSIEHMTLIPGGNTCYCGQQGCMDTYCSPETLMEDGESLPGFFSVLEQGEQEHRKRFSQWLDYVALAVTNIRSVLAGDVIISGEAAQYLDDDDMAGLRERVVEHTPFGTTDFTLRKGMALDHQDIIGAALRFVEPYVRELCDM,not soluble
3,MGSDKIHHHHHHMKDVQNEKDPRMVPLKKVGIKDLHWPLKVILKEDGYQSTVAQISCSVDLHREKRGIHMSRFIEVLNKLEVITPQIFEEILDDLIEIMEAKRAHLEIHFPYFIWKESPVSRKKSPLKVDCFVEAEKEKNFSFKIGVRTPVHTLCPCSKEISDYGAHNQRAFVEITVKTRKFIWFEDLVEIAEKNASSPLYTLLKRPDEKFVTEKAYENPRFVEDVARDVALELEKDPRITWYRVYVESMESIHNHNAFACVEKGDFVLEG,not soluble
4,MGSDKIHHHHHHMKESGNFEFDDVQGLLRFGYGKLADTCFMLLKIADASAARQWLSTAPVSSAIAIHPPPDTALQIAFSVQGLRALGIDESIIDGFSDEFVHGMTRNENCSRRLGDIGHNAPKYWKWGEGADVPHILLLLYARKGGLDAWKATVEGEYFSQAFQLLQYLPTSDMGRTDPFGFEDGISQPAIDWADRHDTDSHANDRYTNLLAAGEMVLGYPNEYGQYTARPLIDLQKDRFAVNLPDAKDDPARKDFGRNGTYLVLRQLEQNVPGFWQFLDKVSDSIPEKRERLAASMVGRERNGTPLIAEHIPGILPKDHGNHFTYDLDPKGNHCPVSAHVRRANPRTGDLPTAVTGTGAIALINRLVKILGFGQKPEEDLIASSRFHRLLRRGRSYGPVLAPGDAVKPDAPAAERGLQFICLVANIGRQFEFVQNAWIVNGKFGGLQEEPDPLLGNREPMINGNSTDHFNRPTSSGSMQKTCHLPQFTTVLGGGYFFMPGLRALKYISALPANGNGGSS,not soluble
5,MGSDKIHHHHHHMKEVKDFYDKWEPEDFPNYIKLLMNFADELIFEEISLLLKKFENKKDFLVLDCGCGFGAFYNLTKDFNTIYLDISLNLLKRFKLKERKICANILHLPFKDNTFDLVLCINVLEHVNYLKALNEIRRILKNKGKLIVVVVNKDSLIKEEIFNDFKIFHKPLSIKDFEIDGFKIVYSNSVYFLPSIFKISPPIILSKIIEYWKPVDKKLSKIFKNKGQFLIIEMVKE,not soluble
6,MGSDKIHHHHHHMKGFITNIQRMSIHDGPGIRSTIFLKGCNLRCKWCHNPETWSMKPQLQYIEDKCIHCFSCITVCEYEVLFIDSNRLSIHRERCTDCGKCTERCTSGALSWIGKEVDSSDIIHEILQDLIYYQKSGGGITLSGGEPLQQKDFALDILQKCREHRIHTAVETNLLTDVNTLEAFLPWVDLWMCDFKMADDTLHRKWTGHSNVPIIKNLEFLAKQAVPLTIRTPVIPNVNDSEEAIESICRFIRQLPNQPAYELLGFHSLGFVKFENLGMKNPLSNSAFLKKGQLQKLKEILIRYNLNNNKK,not soluble
7,MGSDKIHHHHHHMKGMDIMNSAMILEISWFQEHGIMRRAVNRGLARKSSHPSRIGIDEKYYGKHHRYITLVFNHDDHSVEFISLDRKQESLDLYYRSIGEEASGSIEAAPMDMWDPFIVSTKSNVTDAESKIVFDRFHVMKHMNMALDDVRWMESRMAEYKEMFRKTRCLWLYSPENLPDKYGERYEILKESDLKTARVYAIKENLRNLWNCSGEDEARSF,not soluble
8,MGSDKIHHHHHHMKIAFDAKRITHNATGLGNYSRFVVNSLSASFPEHTYQLYTPGKGKEALRKRIEERPSVSFHYPEGRFDKLFPSLWRTSGLTATLRKEHVDLFHGLSNEIPMNLKQNGIPAVVTIHDLIFLRYPQLYKPIDRSIYTYKFKQACLRSDKIIAISRQTMRDIRDFFHIPESKIEVVYQGCDPIFGQAVQEDVKSSVREKYQINGPYILYVGSIEERKNLLLLVKALKKLKEDISVIAIGKHTPYTDTVETYIRENNLSGRVHILTHIPFNELAAFYQMATLFVYPSFFEGFGIPILEAQLAGIPVIAATGSCLEEAGGPSALYTDPRNEQELRGLIESVLNEPKLAESMRSGGRENIRRFMPDVLAAHFMRVYENISRS,not soluble
9,MGSDKIHHHHHHMKIAIASGKGGTGKTTVAVNFAQVLAAAGQEVTLLDCDVEEPNVHLFLHPEFDSVSAVETTIPQVDEEKCTGCRVCAEVCEYHALAVLGKNVLVFPELCHACGACVRFCPEEAIVEIPREIGTIRKGRKGKIRLIEGRLNVGEVMSPAVIERVKKIGLDGKIGIIDAPPGTSCPVIAAVRDTDGVLLVTEPTPFGLYDLKLAVGMVRLLGIPCAVAINRSDLGEKELWRYCSDERIPIILEIPNDRRIAEAYSRGRTIIEELPEYREKFLQGWQALLESCSIA,not soluble
10,MGSDKIHHHHHHMKIAQVAPLWERVPPPSYGGIELVVSHLTNELVRRGHEVTLFASGDSQTLAHLETVCPRALRLDKNVQDYAAYETLELSQVYQNATEFDIIHSHLGISALPLANLVKTPTVHTLHGHFTKDNQNVFSHHHQQPYVSISNAQRQIHLNYIKTVYNGIEPKDYPFISQPKEPPYLAFLGRFSPEKGPHQAIAIAKQSGWRLKMAGKVDIVDAKFFEQEILPHIDGQQIEYLGEINHTEKAELLGNAAATLFPINWQEPFGLVMIESMATGTPVIGMNLGSVPEVIDQGKTGFICRTYEEMIQMIAVTLELDRRDCRESVVNKFSVSHMVDGYEAVYQQIIKDRVNLNGYIHTAKIRF,not soluble
11,MGSDKIHHHHHHMKIDMRNISKSFGTNKVLEKIDLELQSGQIHALMGENGAGKSTLMNILTGLFPASTGTIYIDGEERTFSNPQEAEEFGISFIHQEMNTWPEMTVLENLFLGREIKTTFGLLNQKLMRQKALETFKRLGVTIPLDIPIGNLSVGQQQMIEIAKSLLNQLSILVMDEPTAALTDRETENLFRVIRGLKQEGVGVVYISHRMEEIFKITDFVTVMRDGVIVDTKETSLTNSDELVKKMVGRKLEDYYPEKHSEIGPVAFEVSNLCGDNFEDVSFYVRKGEILGFSGLMGAGRTEVMRTIFGIDKKKSGKVKIDDQEITITTPSQAIKQGIGFLTENRKDEGLILDFNIKDNMTLPSTKDFSKHGFFDEKTSTTFVQQLINRLYIKSGRPDLEVGNLSGGNQQKVVLAKWIGIAPKVLILDEPTRGVDVGAKREIYQLMNELADRGVPIVMVSSDLPEILGVSDRIMVMHEGRISGELSRKEADQEKVMQLATGGK,not soluble
12,MGSDKIHHHHHHMKIEINPVSRIEGHAKVTIFLDSSGKVENAFFQATEFRGYEKILSGLPMEEVPRVVSTICGICRAIHFTAALKAADQVFGVEASDAAKIVREMLLCAHFIEDHTLSLLALALPDFLSPEERNIFGVIRNLGELGRELLRKRGYAVRILQILGGRNIHPVTALPGGWAKAPTDEELGLIERYSRELLDLGYRMVEVLEAALDMGDGLELRAATLGTEKKGLVNLYDGEQVVKDEEGKEVLRFSGKEYADIITEKSLSWSYSKLTEIKPLGEKLYVVGPLARLKTAELTPKASEIVKTYGVSNNLLYNHFARAVEIIYAAERLLELSQSYRGGRIQNEPQKVAGEGVGIVEAPRGTLIHHYWTDEKGIVRGSNLIVATTHNVRAINHVVGKVAERASDTRNLAEKVEVAIRAFDPCMACATHAVNGVIPIEIQIFRDGELEEVYRNYEESCCGSGQSTHS,not soluble
13,MGSDKIHHHHHHMKIIKLRNNSPEFNYKMIVLARESRGIGQRELATLVETDQGNLSRIEKGAQTPVKDMIERISKALDYPVSFFRLQHSVYDFSKSYYRRKLKMPKKEIELSEAKINISKINIETLIRAVELPEPNYPTFDLSKDLSASACAIQLRKYWKLPHGRVENFTKVLEDNGVLVANIDFAGIEVDGHAILTENNLPIIFINKNITADRYRLTLAHELGHLCLHVGREIAEDRDVEQEAFMFAAELLTPEVEIAPDLCEVSIEKLKELKKYWKVSMGSLLKRAHVLKGVSDNQYKYLWQQMGNMGYKTVEPKELEFEKEKPKLLKEIIDAHLEELQYSEDELSELLGLKIQEFAKSYAPARPRLRVSKGKAR,not soluble
14,MGSDKIHHHHHHMKILVAMSGGVDSTVTAYKLKNLGHEVIGCYMKLHGKPNYHEENIKKVEKVANFLQIPYHILDLQEDFKNKVYMPFVDTYKEGKTPNPCALCNRFIKLGKLLEFAKSLGCEKLATGHYARLENNLIKTAVDESKDQSYFLASADKEALKYLIFPLGEMKKEDVKKFASTIEVLKSFATQKESSEICFVEDTYVQVLDQFMDTKIPGEVLDSSGKVVGKHEGYMHYTIGKRRGFEVRGAHEPHFVLKINPKQNQIIVGTKEELKISEFNLKNINLFIDAKELDCEVKIRYRSKSTPCKVEIYEDKSAKIILKDPVYGLASGQMAVFYDHDKVIASGFIE,not soluble
15,MGSDKIHHHHHHMKKAIVLCAGKGTRLRPLTFTTAKHLIPIANKPILFYSLENIARAGIEEVGIVVSPHNAEEFKSIVGTGENFGLRISYIIQEEPKGLAHAVWVSREFLGDEDFMMYLGDNLILEDLGKFVKDFENSDYAASILLSPVKDPTRFGVAVMEGDRVIKVVEKPKTPPSNLAIVGLYLFRNKIFEGIKNIKPSWRGELEITDAIEYLIEKGEKVRGYIVYGWWKDTGKPEDLLEANRKILMETTEELLGEMDDKSSIQGPVRIGKASKIVNSVIRGPAVIGENCFIKNSYVGPYSSIGNRVILEDCEVENSIVMDECSITGVEKRIDSSILGKGVSVKGSQKRPASLNLILGNMSRVEL,not soluble
16,MGSDKIHHHHHHMKKILVVGDFIKGSGLTNYLLNIYSSLPKDEFLISCVSYSGQHNIDTVLEEKKWEKFEVTPITQDIIKHFKDWNNFFKLHGNDFDEIHFNYSAPWNFIAILLAKLKSKAKIIVQSHNNYYSKQPKGLQKKVLAVLNVTGRTVIGRCSDIRLAVSEDSAQWMFGKRNVQILKNGINLKDFEYQPGPREELRKSIGINKGKKIIGFVGTLEKRKNPYFAIECLKKLNKEYILLMFGQGVLKKDLEKKIMDEGLEHRIKLMGVVDNLNEWYSVFDLFLFPSLTEGFGFALLEAQANGLKCFSSTSIPKEAKITNDVTSLNLSEINKWIDEIEKTSINDRERRSKQNCRIIEKKGFSIENTSKQFKRILLGDLS,not soluble
17,MGSDKIHHHHHHMKKLHGFENEYLFVLPPVILNNFNFSKVIKLLYITDLGFYPKARYHFVHRDRGTEEWILIFCTHGKGVVKSATEEWLIESGSIVLLPPGKEHTYYAFDDDPWDIFWAHFNGDSVNEYIPQEALQGNGFLVINKTSTEDMQMLMSQFWQMIQALSAGFSYQSVFYSSQVLGATLAYVSLQSVLPHDSYTMGNEYITKAVKYIYDHFEEKVSLSTLTEVLDVSKSYLSRIFRQTVGTSVNQFILDIKMKQACYYLKDTNLAVHQIASRLGYDDPYYFSRIFKKVVGSSPRVFRKQEKNRL,not soluble
